Experimental findings from patent US11547739B2, “Peptides and methods related to ICOS signaling” (priority 2015, dated 2023) are described below.

For one data set, the system named is Tbk1 transcript. The experiment in a line: In vivo knockdown efficiency by quantitative PCR in sorted transduced cells. Further details: species or system mouse. The note with it: sorted shTbk1+CD4+ T cells. The procedure: Isolation of mRNA, cDNA synthesis and real-time PCR. Total RNA was extracted from sorted CD4^+ Ametrine- and CD4^+ Ametrine^+ cells using the RNeasy kit (Qiagen). RNA was used to synthesize cDNA by the SuperScript III FirstStrand cDNA synthesis kit (Life Technologies). […]; Relative gene expression levels were determined in triplicates, calculated using the 2-° Act method and normalized to the level of ACTB.

The target of data set [1] is T1, TBK1 (Homo sapiens, UniProt Q9UHD2).
T1 sequence (Q9UHD2 1-729): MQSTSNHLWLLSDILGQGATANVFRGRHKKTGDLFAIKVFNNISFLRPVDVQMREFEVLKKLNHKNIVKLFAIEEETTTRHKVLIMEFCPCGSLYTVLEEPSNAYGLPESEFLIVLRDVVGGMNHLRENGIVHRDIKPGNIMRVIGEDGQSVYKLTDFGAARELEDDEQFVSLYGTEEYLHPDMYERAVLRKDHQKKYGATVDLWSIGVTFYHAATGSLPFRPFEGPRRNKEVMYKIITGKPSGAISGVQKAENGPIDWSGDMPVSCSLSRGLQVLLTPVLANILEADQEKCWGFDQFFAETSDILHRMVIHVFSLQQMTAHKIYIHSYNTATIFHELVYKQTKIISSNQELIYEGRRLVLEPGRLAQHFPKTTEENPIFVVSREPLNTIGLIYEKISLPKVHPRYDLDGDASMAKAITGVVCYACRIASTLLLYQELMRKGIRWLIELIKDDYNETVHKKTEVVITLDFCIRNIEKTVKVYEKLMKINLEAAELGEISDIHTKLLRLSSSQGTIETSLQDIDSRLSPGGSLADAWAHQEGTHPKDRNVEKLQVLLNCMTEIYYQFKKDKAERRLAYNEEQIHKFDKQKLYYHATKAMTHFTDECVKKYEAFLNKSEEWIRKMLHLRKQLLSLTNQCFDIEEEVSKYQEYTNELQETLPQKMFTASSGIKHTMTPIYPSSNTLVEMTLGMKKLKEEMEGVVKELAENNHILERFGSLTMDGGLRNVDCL
The experiment in a line: Anti-FLAG immunoprecipitation of WT or mutated TRAF2/TRAF3 in HEK293T cells. It counts as binding. More on the design: endogenous in cells. Conditions: FLAG-tagged TRAF in HEK293T cells. How it is done: (§1) Immunoprecipitation and immunoblotting. The human leukemic Jurkat T cell line, JTAg, was previously described (Li, J et al. J Immunol 2013, 191(1): 200-207; Rolf J et al., J Immunol 2010, 185(7): 4042-4052) and the HEK 293T cell line was obtained from ATCC. These cell lines have not been recently STR profiled but tested negative for mycoplasma contamination. JTAg cells in logarithmic growth phase were transfected with plasmid DNAs by electroporation and incubated for 24 hours. Transfection of HEK293T cells was carried out via liposomes-mediated transfection with plasmid DNAs. For experiments using primary mouse T cells, purified CD4+ T cells were activated in vitro with anti-mouse CD3 (clone 145-2C11) and CD28 (clone 37.51) for 48 hours prior to resting in the presence of IL-2 for another 48 hours. Transfected JTAg cells and preactivated mouse CD4^+ T cells were stimulated with anti-CD3 and anti-ICOS (clone C398.4A) monoclonal antibodies (mAbs) in the presence of a cross-linking antibody (Ab) for 2 minutes. […] The intensity of bands was measured using the ImageJ software (NIH). To determine the ratio of TBK1 to p85a, the band intensity on IP blots and WCL blots were measured for TBK1 and p85a, respectively, and the ratio was expressed as (IP TBK1)/(WCL TBK1): (IP p85a)/(WCL p85a).

In the next data set the test system is Tfh cells. Conditions: mouse, in vivo.
Data set [2] relates to GC B cells and plasma cells. It counts as in vivo, mouse. Conditions: KLH-gp61 in alum, 10 d.
Data set [3] has as its target T1, TBK1. The experiment in a line: ICOS immunoprecipitation and immunoblotting in transfected Jurkat (JTAg) T cells. Format: binding. More on the design: endogenous in cells; host or cells: Jurkat JTAg T cells transfected with ICOS plasmids. Conditions: Jurkat (JTAg) cells stimulated with anti-CD3 plus -ICOS mAbs. How it is done:
as §1
(Immunoblotting shows a protein as a band on a membrane.)

Consider “shTbk1 (guide AAGACATAAAGTGCTTATTATG; expressed or natural sequence)”, for which the Tbk1 transcript reduced in the data set on Tbk1 transcript is reported as ~80%.

B1: TRAF3 (protein, UniProt Q13114 1-568, looked up)
TNF receptor-associated …: MESSKKMDSPGALQTNPPLKLHTDRSAGTPVFVPEQGGYKEKFVKTVEDKYKCEKCHLVLCSPKQTECGHRFCESCMAALLSSSSPKCTACQESIVKDKVFKDNCCKREILALQIYCRNESRGCAEQLMLGHLLVHLKNDCHFEELPCVRPDCKEKVLRKDLRDHVEKACKYREATCSHCKSQVPMIALQKHEDTDCPCVVVSCPHKCSVQTLLRSELSAHLSECVNAPSTCSFKRYGCVFQGTNQQIKAHEASSAVQHVNLLKEWSNSLEKKVSLLQNESVEKNKSIQSLHNQICSFEIEIERQKEMLRNNESKILHLQRVIDSQAEKLKELDKEIRPFRQNWEEADSMKSSVESLQNRVTELESVDKSAGQVARNTGLLESQLSRHDQMLSVHDIRLADMDLRFQVLETASYNGVLIWKIRDYKRRKQEAVMGKTLSLYSQPFYTGYFGYKMCARVYLNGDGMGKGTHLSLFFVIMRGEYDALLPWPFKQKVTLMLMDQGSSRRHLGDAFKPDPNSSSFKKPTGEMNIASGCPVFVAQTVLENGTYIKDDTIFIKVIVDTSDLPDP
As for B1, in the data set with TBK1 [1], the “interaction with TBK1” value is listed as “interacted strongly”.

B2: WT TRAF2 (protein)
chain: MAAASVTPPGSLELLQPGFSKTLLGTKLEAKYLCSACRNVLRRPFQAQCGHRYCSFCLASILSSGPQNCAACVHEGIYEEGISILESSSAFPDNAARREVESLPAVCPSDGCTWKGTLKEYESCHEGRCPLMLTECPACKGLVRLGEKERHLEHECPERSLSCRHCRAPCCGADVKAHHEVCPKFPLTCDGCGKKKIPREKFQDHVKTCGKCRVPCRFHAIGCLETVEGEKQQEHEVQWLREHLAMLLSSVLEAKPLLGDQSHAGSELLQGCESLEKKTATFENIVCVLNREVERVAMTAEACSRQHRLDQDKIEAPSSKVQQLERSIGLKDLAMADLEQKVSEMEASTYDGVFIWKISDFARKRQEAVAGRIPAIFSPAFYTRRYGYKMCLRIYLNGDGTGRGTHLSLFFVVMKGPNDALLRWPFNQKVTLMLLDQNNREHVIDAFRPDVTSSSFQRPVNDMNIASGCPLFCPVSKMEAKDSYVRDDAIFIKAIVDLTGL
modifications: left off: small tags and cut ends
Take B2: in the data set with TBK1 [1], the “interaction with TBK1” value is recorded as “interacted strongly”.

B3: WT ICOS (protein)
chain: EINGSANYEMFIFHNGGVQILCKYPDIVQQFKMQLLKGGQILCDLTKTKGSGNTVSIKSLKFCHSQLSNNSVSFFLYNLDHSHANYYFCNLSIFDPPPFKVTLTGGYLHIYESQLCCQLKFWLPIGCAAFVVVCILGCILICWLTKKKYSSSVHDPNGEYMFMRAVNTAKKSRLTDVTL
B3: in the data set on Tfh cells, the “CXCR5+SLAMlo Tfh cell population” value is reported as “differentiated”, the “differentiation of CXCR5+PD1hi GC Tfh cells” value is “restored” and the “nascent CXCR5+Bcl6+ Tfh cells” value was “able to differentiate”. Moreover, the “B cell differentiation (Fas+GL7+ GC B cells and class-switched IgD-CD138+ plasma cells)” value in data set [2] is “supported the differentiation”. Also, the “interaction with endogenous TBK1 in ICOS IPs” value with TBK1 [3] is listed as “interacted strongly”.
